Test results: patent publication US10933119B2, “Aortopathy” (University of Leicester, priority 2015, dated 2021)

Assays:
[1] = system: leukocytes in peripheral blood; assay: Number of leukocytes in peripheral blood after GM-CSF administration; assay type: in vivo, mice; set-up: Lymphocytes in peripheral blood: unit not given here; details: for Lymphocytes in peripheral blood / Monocytes in peripheral blood / Neutrophils in peripheral blood: wild type mice
Protocol: (§1) To induce aortic dissection/intramural hematoma, peri-aortic application of CaCl2 was done to the abdominal aorta, followed by two-week infusion of AngII (2000 ng kg−1 min−1) (40). In detail, mice were anesthetized and underwent laparotomy at 10- to 13-weeks of age. The abdominal aorta between the renal arteries and bifurcation of the iliac arteries was isolated from the surrounding retroperitoneal structure, and 0.5 M CaCl2 was applied to the external surface of the infrarenal aorta. NaCl (0.9%) was substituted for CaCl2 in sham control mice. The aorta was rinsed with 0.9% sterile saline after 15 min and the incision was closed.
(§2) Wild-type mice were injected intraperitoneally with 110 mg kg−1 of clodronate liposomes or equal volume of PBS liposomes 2 days prior and 7 days after induction of aortic dissection. Neutralizing antibody against GM-CSF (300 μg, R&D systems) or control anti-rat IgG antibody (Equitech Bio) was administered every other day by intraperitoneal injection. Recombinant murine GM-CSF (10, 50, 100 μg kg−1 day−1, PeproTech) was administered for two weeks or four weeks after induction of aortic dissection.
(§3) Aortas were minced into 3- to 4-mm pieces and placed in 1 ml digestion solution containing collagenase type II (1.25 mg ml−1, Worthington) and porcine pancreatic elastase (50 μg ml−1, Worthington) in base solution of Accumax (Innovative Cell Technologies). Aortic tissue was digested at room temperature with agitation for 1 h. After digestion, cells were washed in FACS buffer (5% FCS in PBS) at 2000 rpm for 5 min. Aortic macrophages were isolated using CD11b microbeads according to the manufacturer's instructions (Miltenyi Biotec). Spleen was homogenized and passed through a cell strainer to obtain single-cell suspensions. Bone marrow-derived cells were taken from the femur and tibia of 5- to 6-week-old mice. Blood was collected in heparin-coated vials and then 1.2% dextran was added for 45 min at room temperature. Counting of peripheral leukocytes was done by automated hematology analyzer (XT-2000i, Sysmex). Neutrophils were isolated from bone marrow using a neurophil isolation kit according to the manufacturer's instructions (Miltenyi Biotec). From single-cell suspensions of spleen, bone marrow and blood, erythrocytes were lysed using ACK lysis buffer for 5, 3 and 2 min on ice, respectively. Cells were centrifuged at 2000 rpm for 5 min to remove the ACK lysis buffer, then the single-cell suspensions were resuspended and washed in FACS buffer, followed by centrifugation at 2000 rpm for 5 min.

[2] = system: leukocytes in peripheral blood; assay: Number of leukocytes in peripheral blood after GM-CSF blockade by neutralizing antibody; assay type: in vivo; set-up: Lymphocytes in peripheral blood: unit not given here; details: KLF6fl/fl;LysM Cre mice, CaCl2 + AngII
Protocol: as §1, §2
as §3, with “Neutrophils were isolated from bone marrow using a neurophil isolation kit according to the manufacturer's instructions (Miltenyi Biotec). From single-cell suspensions of spleen, bone marrow and blood, erythrocytes were lysed using ACK lysis buffer for 5, 3 and 2 min on ice, respectively. Cells were centrifuged at 2000 rpm for 5 min to remove the ACK lysis buffer, then the single-cell suspensions were resuspended and washed in FACS buffer, followed by centrifugation at 2000 rpm for 5 min.” left out

[3] = system: wild-type mice; assay: Murine aortic dissection/intramural hematoma model with recombinant GM-CSF administration; assay type: in vivo
Protocol: as §1, §2
Aortas from mice were embedded in paraffin then 5-μm-thick serial sections were prepared for Elastic Von Gienson (EVG) and hematoxylin/eosin (HE) staining. Digital images of EVG-stained aortas with reference scale were used for absolute measurement of diameter. Human aortic tissue was obtained from patients undergoing surgical aortic repair with informed consent under a protocol approved by the University of Tokyo hospital research ethics committee. Paraffin-embedded sections were taken from the aorta for EVG staining and immunohistochemistry. […]

[4] = Plasma GM-CSF concentration (ELISA) after recombinant GM-CSF infusion; assay type: in vivo; details: wild-type mice
Protocol: as §2
Plasma levels of IL-6, MCP-1 and GM-CSF in mice or in humans with or without aortic dissection/intramural hematoma were assayed with commercially available quantikine ELISA kits (R&D systems) according to the manufacturer's instructions. Sera of healthy volunteers and of patients with aortic aneurysm, coronary artery disease or with aortic dissection were obtained with informed consent under a protocol approved by the University of Tokyo hospital research ethics committee.

B1: GM-CSF: Recombinant murine GM-CSF (PeproTech), granulocyte macrophage colony-stimulating factor (protein, UniProt P01587 18-141, looked up)
Granulocyte-macrophage …: APTRSPITVTRPWKHVEAIKEALNLLDDMPVTLNEEVEVVSNEFSFKKLTCVQTRLKIFEQGLRGNFTKLKGALNMTASYYQTYCPPTPETDCETQVTTYADFIDSLKTFLTDIPFECKKPGQK
With B1 as the molecule, how does the “number of neutrophils in peripheral blood” value ([1]; 14 days of GM-CSF administration) read?
The value was “no difference”.

What about the “number of neutrophils in peripheral blood” value ([1]; GM-CSF administration, early phase) of the same molecule?
The value was “markedly increased”.

What about the “number of circulating lymphocytes” value ([1]; GM-CSF administration, early phase (5 days) or developed phase (14 days)) of the same molecule?
Its value is “did not change”.

And the “Lymphocytes in peripheral blood” value ([1]; CaCl2 + AngII, 5 days)?
Its value is 1803.3 ± 124.0.

And the Monocytes in peripheral blood ([1]; CaCl2 + AngII, 5 days)?
The Monocytes in peripheral blood was 387 ± 112 cells/µL.

What about the Neutrophils in peripheral blood ([1]; CaCl2 + AngII, 5 days) of the same molecule?
The Neutrophils in peripheral blood was 1690 ± 147 cells/µL.

And the “Lymphocytes in peripheral blood” value ([1]; CaCl2 + AngII, 14 days)?
The value was 1667.2 ± 371.3.

What about the Monocytes in peripheral blood ([1]; CaCl2 + AngII, 14 days) of the same molecule?
Its Monocytes in peripheral blood is 310 ± 45.9 cells/µL.

And the Neutrophils in peripheral blood ([1]; CaCl2 + AngII, 14 days)?
Its Neutrophils in peripheral blood is 1050 ± 259 cells/µL.

And the “Lymphocytes in peripheral blood” value ([1]; Sham, 5 days)?
The value was 3150.0 ± 234.5.

And the Monocytes in peripheral blood ([1]; Sham, 5 days)?
The Monocytes in peripheral blood was 353 ± 103 cells/µL.

What about the Neutrophils in peripheral blood ([1]; Sham, 5 days) of the same molecule?
The Neutrophils in peripheral blood was 2540 ± 454 cells/µL.

What about the “Lymphocytes in peripheral blood” value ([1]; Sham, 14 days) of the same molecule?
The value was 3052.0 ± 420.3.

And the Monocytes in peripheral blood ([1]; Sham, 14 days)?
Its Monocytes in peripheral blood is 295 ± 66.2 cells/µL.

And the Neutrophils in peripheral blood ([1]; Sham, 14 days)?
The Neutrophils in peripheral blood was 976 ± 117 cells/µL.

What about the “Lymphocytes in peripheral blood” value [2] of the same molecule?
Its value is 1843.3 ± 311.1.

What about the Monocytes in peripheral blood [2] of the same molecule?
Its Monocytes in peripheral blood is 82.5 ± 12.5 cells/µL.

What about the Neutrophils in peripheral blood [2] of the same molecule?
The Neutrophils in peripheral blood was 786 ± 118 cells/µL.

What about the aortic dissection/intramural hematoma ([3]; wild-type mice subjected to aortic inflammation (CaCl2+AngII) plus GM-CSF) of the same molecule?
The aortic dissection/intramural hematoma was “caused”.

And the death of mice ([3]; wild-type mice, GM-CSF with CaCl2+AngII)?
The death of mice was “died from aortic rupture”.

And the aortic dissection/intramural hematoma ([3]; wild-type mice, administration of GM-CSF alone)?
Its aortic dissection/intramural hematoma is “did not develop”.

What about the “increased circulating levels of GM-CSF” value ([4]; GM-CSF alone, 2 weeks infusion) of the same molecule?
Its value is “at least 180.9 fold”.

And the “circulating levels of GM-CSF” value ([4]; combination of GM-CSF with CaCl2 + AngII compared to each alone)?
Its value is “markedly elevated”.
